In data set [1] the target is T1, RecF (Escherichia coli, UniProt P0A7H0 1-357).
T1 sequence: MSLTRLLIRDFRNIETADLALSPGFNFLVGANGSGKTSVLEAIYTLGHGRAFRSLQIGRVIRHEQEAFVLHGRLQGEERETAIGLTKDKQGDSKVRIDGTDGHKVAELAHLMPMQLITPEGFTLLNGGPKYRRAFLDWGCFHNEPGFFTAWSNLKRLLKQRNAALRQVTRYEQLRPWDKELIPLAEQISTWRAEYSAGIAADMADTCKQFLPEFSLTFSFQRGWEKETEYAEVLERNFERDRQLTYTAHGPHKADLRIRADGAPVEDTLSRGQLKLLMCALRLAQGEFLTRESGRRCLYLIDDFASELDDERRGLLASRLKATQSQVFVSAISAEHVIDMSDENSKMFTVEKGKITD
In words: fluorescence anisotropy. The conditions noted are these: 30 mM Tris-Cl pH 7.5, 100 mM NaCl, 10 mM MgCl2, 0.1 mM EDTA, 1 mM DTT, 30% glycerol, 0.1 mg/ml BSA, 10 nM DNA, 25 C, 3 mM ATP and 5 uM RecR where indicated.

In data set [2] the target is RecF;RecR (Escherichia coli;Escherichia coli) (UniProt P0A7H0). In words: fluorescence anisotropy. Particulars: 3 mM ATP, 5 uM RecR, 30 mM Tris-Cl pH 7.5, 100 mM NaCl, 10 mM MgCl2, 0.1 mM EDTA, 1 mM DTT, 30% glycerol, 0.1 mg/ml BSA, 10 nM DNA, 25 C, 3 mM ATP and 5 uM RecR where indicated.
Data set [3] has as its target T1, RecF. In words: fluorescence anisotropy; 3 mM ATP; 30 mM Tris-Cl pH 7.5, 100 mM NaCl, 10 mM MgCl2, 0.1 mM EDTA, 1 mM DTT, 30% glycerol, 0.1 mg/ml BSA, 10 nM DNA, 25 C; 3 mM ATP and 5 uM RecR where indicated. The conditions noted are these: protein: recombinant; chain copies: 2; label: 5' FAM. (In general: Fluorescence polarisation rises when a labelled molecule tumbles more slowly, as on binding a larger partner.)

One may read the Kd as the free concentration of one partner at which half of the binding sites on the other are occupied at equilibrium, for simple one-to-one binding.

As to 20mer dsDNA 5FAM, the equilibrium dissociation constant (Kd) with RecF [1] (3 mM ATP, h 2.4) came to 0.067 µM; in data set [2] it was 109 nM.
20mer ssDNA 5FAM showed a Kd in the data set with RecF [1] (3 mM ATP, h 1.1) of 0.64 µM.
In turn, 31mer dsDNA 5FAM gave a Kd with RecF [1] of 0.108 µM.
Molecule 40mer dsDNA 5FAM yielded an equilibrium dissociation constant (Kd) with RecF [1] of 0.175 µM.
For 40mer ssDNA 5FAM (random sequence), the dissociation constant (Kd) with RecF [1] was found to be 0.134 µM.
Turning to iFAM css (circular 50mer), the Kd was determined as 0.0978 µM with RecF [1] (circularized by ligation) and 68.4 nM in data set [2] (circularized by ligation).
Molecule iFAM ss 50mer (dephosphorylated) gave a Kd with RecF [1] of 0.112 µM.
For iFAM ss_5P 50mer, the equilibrium dissociation constant (Kd) worked out at 0.116 µM with RecF [1] (5' phosphate) and 1 µM in the data set with RecF [1] (no ATP, Kd nearly in the uM range, h 1, 5' phosphate).

B1: 31 polydT ssDNA 5FAM (ssDNA)
DNA: TTTTTTTTTTTTTTTTTTTTTTTTTTTTTTT
Turning to B1, the Kd in the data set with RecF [3] came to 93 nM.

The values are drawn from paper PMC10287957, “RecF protein targeting to postreplication (daughter strand) gaps I: DNA binding by RecF and RecFR”.
